According to PMC10786891, “Massively parallel profiling of RNA-targeting CRISPR-Cas13d”:

T1: EsCas13d, nuclease-dead (Eubacterium siraeum, UniProt B0MS50, R295A;H300A;R849A;H854A)
T1 sequence: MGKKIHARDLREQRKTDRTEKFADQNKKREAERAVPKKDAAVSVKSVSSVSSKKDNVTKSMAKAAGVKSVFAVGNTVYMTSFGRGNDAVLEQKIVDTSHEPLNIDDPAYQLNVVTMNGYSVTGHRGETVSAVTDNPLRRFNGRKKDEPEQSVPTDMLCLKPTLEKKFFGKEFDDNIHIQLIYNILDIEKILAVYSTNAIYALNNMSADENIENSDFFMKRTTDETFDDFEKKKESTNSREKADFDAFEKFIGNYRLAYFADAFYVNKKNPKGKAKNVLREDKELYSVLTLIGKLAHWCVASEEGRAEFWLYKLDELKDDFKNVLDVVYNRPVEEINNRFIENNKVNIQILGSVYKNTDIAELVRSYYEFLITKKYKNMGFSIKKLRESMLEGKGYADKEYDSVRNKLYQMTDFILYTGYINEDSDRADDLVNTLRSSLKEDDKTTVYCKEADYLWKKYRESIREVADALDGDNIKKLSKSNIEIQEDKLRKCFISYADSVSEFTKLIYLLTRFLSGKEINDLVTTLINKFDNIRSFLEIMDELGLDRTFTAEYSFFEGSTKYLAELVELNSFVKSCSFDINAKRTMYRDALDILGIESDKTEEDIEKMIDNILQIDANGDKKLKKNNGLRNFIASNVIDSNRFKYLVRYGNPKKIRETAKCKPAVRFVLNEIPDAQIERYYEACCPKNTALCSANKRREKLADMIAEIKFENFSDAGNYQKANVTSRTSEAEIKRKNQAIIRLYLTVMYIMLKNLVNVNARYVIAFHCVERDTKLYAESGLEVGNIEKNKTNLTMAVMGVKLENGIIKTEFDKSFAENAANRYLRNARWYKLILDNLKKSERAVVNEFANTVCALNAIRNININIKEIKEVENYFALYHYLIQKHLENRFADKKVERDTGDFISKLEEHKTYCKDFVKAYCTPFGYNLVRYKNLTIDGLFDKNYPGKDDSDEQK

B1: target 2 MT 5'PFS GAU 3'PFS CGC (mixed)
RNA 1: CACCCGUGCAAAAUUGCAGGGGUCUAAAACCUUCUCCAAAUUGUUUCAUCCU
RNA 2: GGGAAUGGAUCCACAUCUACGAAUUCGAUAGGAUGAAACAAUUUGGAGAAGCGCAGAUCGGAAGAGCACACGU
B2: target 1 insU 3' of 21,insC 3' of 19 (mixed)
RNA 1: CACCCGUGCAAAAAUGCAGGGGUCUAAAACUGAGCGGAUAACCUCUCUAUGG
RNA 2: GGGAAUGGAUCCACAUCUACGAAUUCGUACCUAUCAGAGAGGUUAUCCGCUCACCGAGAUCGGAAGAGCACACGU
B3: target 2 MT 5'PFS GAU 3'PFS CGA (mixed)
RNA 1: CACCCGUGCAAAAUUGCAGGGGUCUAAAACCUUCUCCAAAUUGUUUCAUCCU
RNA 2: GGGAAUGGAUCCACAUCUACGAAUUCGAUAGGAUGAAACAAUUUGGAGAAGCGAAGAUCGGAAGAGCACACGU
B4: target 2 MT 5'PFS UGA 3'PFS UAC (mixed)
RNA 1: CACCCGUGCAAAAUUGCAGGGGUCUAAAACCUUCUCCAAAUUGUUUCAUCCU
RNA 2: GGGAAUGGAUCCACAUCUACGAAUUCUGAAGGAUGAAACAAUUUGGAGAAGUACAGAUCGGAAGAGCACACGU
B5: target 2 MT 5'PFS GUA 3'PFS AUA (mixed)
RNA 1: CACCCGUGCAAAAUUGCAGGGGUCUAAAACCUUCUCCAAAUUGUUUCAUCCU
RNA 2: GGGAAUGGAUCCACAUCUACGAAUUCGUAAGGAUGAAACAAUUUGGAGAAGAUAAGAUCGGAAGAGCACACGU
B6: target 2 MT 5'PFS UGA 3'PFS UAA (mixed)
RNA 1: CACCCGUGCAAAAUUGCAGGGGUCUAAAACCUUCUCCAAAUUGUUUCAUCCU
RNA 2: GGGAAUGGAUCCACAUCUACGAAUUCUGAAGGAUGAAACAAUUUGGAGAAGUAAAGAUCGGAAGAGCACACGU
B7: target 2 MT 5'PFS GAU 3'PFS CGU (mixed)
RNA 1: CACCCGUGCAAAAUUGCAGGGGUCUAAAACCUUCUCCAAAUUGUUUCAUCCU
RNA 2: GGGAAUGGAUCCACAUCUACGAAUUCGAUAGGAUGAAACAAUUUGGAGAAGCGUAGAUCGGAAGAGCACACGU
B8: target 2 MT 5'PFS ACU 3'PFS AGA (mixed)
RNA 1: CACCCGUGCAAAAUUGCAGGGGUCUAAAACCUUCUCCAAAUUGUUUCAUCCU
RNA 2: GGGAAUGGAUCCACAUCUACGAAUUCACUAGGAUGAAACAAUUUGGAGAAGAGAAGAUCGGAAGAGCACACGU
B9: target 2 MT 5'PFS ACU 3'PFS AGC (mixed)
RNA 1: CACCCGUGCAAAAUUGCAGGGGUCUAAAACCUUCUCCAAAUUGUUUCAUCCU
RNA 2: GGGAAUGGAUCCACAUCUACGAAUUCACUAGGAUGAAACAAUUUGGAGAAGAGCAGAUCGGAAGAGCACACGU
B10: target 2 MT 5'PFS ACU 3'PFS AGG (mixed)
RNA 1: CACCCGUGCAAAAUUGCAGGGGUCUAAAACCUUCUCCAAAUUGUUUCAUCCU
RNA 2: GGGAAUGGAUCCACAUCUACGAAUUCACUAGGAUGAAACAAUUUGGAGAAGAGGAGAUCGGAAGAGCACACGU
B11: target 2 MT 5'PFS GUG 3'PFS UAC (mixed)
RNA 1: CACCCGUGCAAAAUUGCAGGGGUCUAAAACCUUCUCCAAAUUGUUUCAUCCU
RNA 2: GGGAAUGGAUCCACAUCUACGAAUUCGUGAGGAUGAAACAAUUUGGAGAAGUACAGAUCGGAAGAGCACACGU
B12: target 2 MT 5'PFS GCA 3'PFS ACU (mixed)
RNA 1: CACCCGUGCAAAAUUGCAGGGGUCUAAAACCUUCUCCAAAUUGUUUCAUCCU
RNA 2: GGGAAUGGAUCCACAUCUACGAAUUCGCAAGGAUGAAACAAUUUGGAGAAGACUAGAUCGGAAGAGCACACGU
B13: target 1 U3G,G17C (mixed)
RNA 1: CACCCGUGCAAAAAUGCAGGGGUCUAAAACUGAGCGGAUAACCUCUCUAUGG
RNA 2: GGGAAUGGAUCCACAUCUACGAAUUCGUACCAUACAGAGGUUAUCCGCGCACCGAGAUCGGAAGAGCACACGU
B14: target 2 MT 5'PFS GUG 3'PFS UAA (mixed)
RNA 1: CACCCGUGCAAAAUUGCAGGGGUCUAAAACCUUCUCCAAAUUGUUUCAUCCU
RNA 2: GGGAAUGGAUCCACAUCUACGAAUUCGUGAGGAUGAAACAAUUUGGAGAAGUAAAGAUCGGAAGAGCACACGU
B15: target 2 MT 5'PFS UUC 3'PFS UCC (mixed)
RNA 1: CACCCGUGCAAAAUUGCAGGGGUCUAAAACCUUCUCCAAAUUGUUUCAUCCU
RNA 2: GGGAAUGGAUCCACAUCUACGAAUUCUUCAGGAUGAAACAAUUUGGAGAAGUCCAGAUCGGAAGAGCACACGU
B16: target 2 MT 5'PFS AUU 3'PFS CUU (mixed)
RNA 1: CACCCGUGCAAAAUUGCAGGGGUCUAAAACCUUCUCCAAAUUGUUUCAUCCU
RNA 2: GGGAAUGGAUCCACAUCUACGAAUUCAUUAGGAUGAAACAAUUUGGAGAAGCUUAGAUCGGAAGAGCACACGU
B17: target 2 MT 5'PFS GCG 3'PFS AAC (mixed)
RNA 1: CACCCGUGCAAAAUUGCAGGGGUCUAAAACCUUCUCCAAAUUGUUUCAUCCU
RNA 2: GGGAAUGGAUCCACAUCUACGAAUUCGCGAGGAUGAAACAAUUUGGAGAAGAACAGAUCGGAAGAGCACACGU
B18: target 2 MT 5'PFS UCU 3'PFS CUA (mixed)
RNA 1: CACCCGUGCAAAAUUGCAGGGGUCUAAAACCUUCUCCAAAUUGUUUCAUCCU
RNA 2: GGGAAUGGAUCCACAUCUACGAAUUCUCUAGGAUGAAACAAUUUGGAGAAGCUAAGAUCGGAAGAGCACACGU
B19: target 2 MT 5'PFS UCU 3'PFS CUC (mixed)
RNA 1: CACCCGUGCAAAAUUGCAGGGGUCUAAAACCUUCUCCAAAUUGUUUCAUCCU
RNA 2: GGGAAUGGAUCCACAUCUACGAAUUCUCUAGGAUGAAACAAUUUGGAGAAGCUCAGAUCGGAAGAGCACACGU
B20: target 2 MT 5'PFS AUG 3'PFS AGA (mixed)
RNA 1: CACCCGUGCAAAAUUGCAGGGGUCUAAAACCUUCUCCAAAUUGUUUCAUCCU
RNA 2: GGGAAUGGAUCCACAUCUACGAAUUCAUGAGGAUGAAACAAUUUGGAGAAGAGAAGAUCGGAAGAGCACACGU
B21: target 2 MT 5'PFS UAG 3'PFS UUA (mixed)
RNA 1: CACCCGUGCAAAAUUGCAGGGGUCUAAAACCUUCUCCAAAUUGUUUCAUCCU
RNA 2: GGGAAUGGAUCCACAUCUACGAAUUCUAGAGGAUGAAACAAUUUGGAGAAGUUAAGAUCGGAAGAGCACACGU
B22: target 2 MT 5'PFS GCA 3'PFS ACG (mixed)
RNA 1: CACCCGUGCAAAAUUGCAGGGGUCUAAAACCUUCUCCAAAUUGUUUCAUCCU
RNA 2: GGGAAUGGAUCCACAUCUACGAAUUCGCAAGGAUGAAACAAUUUGGAGAAGACGAGAUCGGAAGAGCACACGU
B23: target 2 MT 5'PFS UAG 3'PFS UUC (mixed)
RNA 1: CACCCGUGCAAAAUUGCAGGGGUCUAAAACCUUCUCCAAAUUGUUUCAUCCU
RNA 2: GGGAAUGGAUCCACAUCUACGAAUUCUAGAGGAUGAAACAAUUUGGAGAAGUUCAGAUCGGAAGAGCACACGU
B24: target 1 C2U,U10A (mixed)
RNA 1: CACCCGUGCAAAAAUGCAGGGGUCUAAAACUGAGCGGAUAACCUCUCUAUGG
RNA 2: GGGAAUGGAUCCACAUCUACGAAUUCGUACCAUAGAGAGGUAAUCCGCUUACCGAGAUCGGAAGAGCACACGU
B25: target 2 MT 5'PFS GCA 3'PFS ACA (mixed)
RNA 1: CACCCGUGCAAAAUUGCAGGGGUCUAAAACCUUCUCCAAAUUGUUUCAUCCU
RNA 2: GGGAAUGGAUCCACAUCUACGAAUUCGCAAGGAUGAAACAAUUUGGAGAAGACAAGAUCGGAAGAGCACACGU
B26: target 2 MT 5'PFS GCA 3'PFS ACC (mixed)
RNA 1: CACCCGUGCAAAAUUGCAGGGGUCUAAAACCUUCUCCAAAUUGUUUCAUCCU
RNA 2: GGGAAUGGAUCCACAUCUACGAAUUCGCAAGGAUGAAACAAUUUGGAGAAGACCAGAUCGGAAGAGCACACGU
B27: target 2 MT 5'PFS GUG 3'PFS UAU (mixed)
RNA 1: CACCCGUGCAAAAUUGCAGGGGUCUAAAACCUUCUCCAAAUUGUUUCAUCCU
RNA 2: GGGAAUGGAUCCACAUCUACGAAUUCGUGAGGAUGAAACAAUUUGGAGAAGUAUAGAUCGGAAGAGCACACGU
B28: target 2 MT 5'PFS AUG 3'PFS AGU (mixed)
RNA 1: CACCCGUGCAAAAUUGCAGGGGUCUAAAACCUUCUCCAAAUUGUUUCAUCCU
RNA 2: GGGAAUGGAUCCACAUCUACGAAUUCAUGAGGAUGAAACAAUUUGGAGAAGAGUAGAUCGGAAGAGCACACGU

What follows are binders tested against T1, EsCas13d, nuclease-dead (assay: crRNA (strand 1, pre-loaded); Mg2+; 40 mM Tris-HCl pH 7.5, 150 mM NaCl, 6 mM MgCl2, 1 mM DTT, 0.1% Tween-20, 0.2 mg/ml BSA; 25 C; 10 min per concentration, then washed). Details: tags: His6-TwinStrep-SUMO cleaved; N-terminal SNAP kept (SNAP-Surface 488); label: 3' end held by stalled T7 RNA polymerase.

| Binder | Kd [µM] |
| --- | --- |
| B1 | 0.0127 ± 0.002 |
| B2 | ~0.1 |
| B3 | 0.0109 ± 0.0014 |
| B4 | 0.0091 ± 0.0016 |
| B5 | 0.0061 ± 0.0007 |
| B6 | 0.006 ± 0.0013 |
| B7 | 0.0141 ± 0.0026 |
| B8 | 0.0037 ± 0.0005 |
| B9 | 0.00318 ± 0.0003 |
| B10 | 0.0045 ± 0.0006 |
| B11 | 0.0151 ± 0.0015 |
| B12 | 0.0132 ± 0.0018 |
| B13 | 0.0367 ± 0.0028 |
| B14 | 0.009 ± 0.0007 |
| B15 | 0.0196 ± 0.003 |
| B16 | 0.01 ± 0.001 |
| B17 | 0.015 ± 0.004 |
| B18 | 0.02 ± 0.006 |
| B19 | 0.0093 ± 0.0016 |
| B20 | 0.015 ± 0.005 |
| B21 | 0.0081 ± 0.0016 |
| B22 | 0.0133 ± 0.002 |
| B23 | 0.0072 ± 0.0009 |
| B24 | 0.0116 ± 0.0014 |
| B25 | 0.0102 ± 0.0017 |
| B26 | ~0.036 |
| B27 | 0.0095 ± 0.0007 |
| B28 | 0.0111 ± 0.0016 |
